Test results reported in patent US20210238260.

How the values were obtained:
[1] = molecular target: Factor X (FX), P00742
[2] = molecular target: Factor X, P00742
Sequence of Factor X, P00742 (P00742 whole entry, looked up): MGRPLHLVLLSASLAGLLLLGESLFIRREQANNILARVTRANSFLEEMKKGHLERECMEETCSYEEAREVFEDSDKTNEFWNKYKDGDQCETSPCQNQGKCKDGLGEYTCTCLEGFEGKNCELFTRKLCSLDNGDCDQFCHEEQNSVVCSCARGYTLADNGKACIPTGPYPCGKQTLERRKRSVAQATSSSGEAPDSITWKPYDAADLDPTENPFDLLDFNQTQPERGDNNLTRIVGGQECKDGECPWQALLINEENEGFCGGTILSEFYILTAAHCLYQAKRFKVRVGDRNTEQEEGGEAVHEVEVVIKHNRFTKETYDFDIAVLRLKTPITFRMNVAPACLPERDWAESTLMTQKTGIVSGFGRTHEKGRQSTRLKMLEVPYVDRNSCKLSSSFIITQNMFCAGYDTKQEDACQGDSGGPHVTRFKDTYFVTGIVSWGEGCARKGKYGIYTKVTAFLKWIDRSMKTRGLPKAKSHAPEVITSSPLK

Sequence of Factor X (FX), P00742 (P00742 whole entry, looked up): as above

| Protein | % of WT kcat/KM [1] | KM [1] | kcat/KM for FX activation (Xase: FVIIIa, PC/PS vesicles, Ca2+) [1] | kcat [2] | kcat (s^-1) of FX activation by FIXa variant in the Xase complex (FVIIIa, PC/PS vesicles, Ca2+), fluorogenic FXa read-out [1] | KM [2] | proteolytic cleavage and activation of purified factor X [1] |
| --- | --- | --- | --- | --- | --- | --- | --- |
| FIXa-Y155F/K247N/N249S/R338E/T343R (protein) chain 1: YNSGKLEEFVQGNLERECMEEKCSFEEAREVFENTERTTEFWKQYVDGDQCESNPCLNGGSCKDDINSYECWCPFGFEGKNCELDVTCNIKNGRCEQFCKNSADNKVVCSCTEGYRLAENQKSCEPAVPFPCGRVSVSQTSKLTR chain 2: VVGGEDAKPGQFPWQVVLNGKVDAFCGGSIVNEKWIVTAAHCVETGVKITVVAGEHNIEETEHTEQNRSVIRIIPHHNYNAAINKYNHDIALLELDEPLVLNSYVTPICIADKEYTNIFLKFGSGYVSGWGRVFHKGRSALVLQYLRVPLVDRATCLESTKFRIYNNMFCAGFHEGGRDSCQGDSGGPHVTEVEGTSFLTGIISWGEECAMKGKYGIYTKVSRYVNWIKEKTKLT | 1579% | 0.0153 µM | 7.3e+08 M⁻¹ s⁻¹ | 10.6 s⁻¹ |  |  |  |
| FIXa-Y155F/K247N/N249S/R318Y/R338E/T343R/E410N (protein) chain 1: YNSGKLEEFVQGNLERECMEEKCSFEEAREVFENTERTTEFWKQYVDGDQCESNPCLNGGSCKDDINSYECWCPFGFEGKNCELDVTCNIKNGRCEQFCKNSADNKVVCSCTEGYRLAENQKSCEPAVPFPCGRVSVSQTSKLTR chain 2: VVGGEDAKPGQFPWQVVLNGKVDAFCGGSIVNEKWIVTAAHCVETGVKITVVAGEHNIEETEHTEQNRSVIRIIPHHNYNAAINKYNHDIALLELDEPLVLNSYVTPICIADKEYTNIFLKFGSGYVSGWGRVFHKGYSALVLQYLRVPLVDRATCLESTKFRIYNNMFCAGFHEGGRDSCQGDSGGPHVTEVEGTSFLTGIISWGEECAMKGKYGIYTKVSRYVNWIKNKTKLT | 1091% | 0.0177 µM | 5e+08 M⁻¹ s⁻¹ | 7.7 s⁻¹ |  |  |  |
| FIXa-K247N/N249S/T343R/R403E/E410N (protein) chain 1: YNSGKLEEFVQGNLERECMEEKCSFEEAREVFENTERTTEFWKQYVDGDQCESNPCLNGGSCKDDINSYECWCPFGFEGKNCELDVTCNIKNGRCEQFCKNSADNKVVCSCTEGYRLAENQKSCEPAVPFPCGRVSVSQTSKLTR chain 2: VVGGEDAKPGQFPWQVVLNGKVDAFCGGSIVNEKWIVTAAHCVETGVKITVVAGEHNIEETEHTEQNRSVIRIIPHHNYNAAINKYNHDIALLELDEPLVLNSYVTPICIADKEYTNIFLKFGSGYVSGWGRVFHKGRSALVLQYLRVPLVDRATCLRSTKFRIYNNMFCAGFHEGGRDSCQGDSGGPHVTEVEGTSFLTGIISWGEECAMKGKYGIYTKVSEYVNWIKNKTKLT | 285% |  | 1.3e+08 M⁻¹ s⁻¹ |  | 8 s⁻¹ | 0.06 µM |  |
| FIXa-Y155F/R318Y/R338E/T343R (protein) chain 1: YNSGKLEEFVQGNLERECMEEKCSFEEAREVFENTERTTEFWKQYVDGDQCESNPCLNGGSCKDDINSYECWCPFGFEGKNCELDVTCNIKNGRCEQFCKNSADNKVVCSCTEGYRLAENQKSCEPAVPFPCGRVSVSQTSKLTR chain 2: VVGGEDAKPGQFPWQVVLNGKVDAFCGGSIVNEKWIVTAAHCVETGVKITVVAGEHNIEETEHTEQKRNVIRIIPHHNYNAAINKYNHDIALLELDEPLVLNSYVTPICIADKEYTNIFLKFGSGYVSGWGRVFHKGYSALVLQYLRVPLVDRATCLESTKFRIYNNMFCAGFHEGGRDSCQGDSGGPHVTEVEGTSFLTGIISWGEECAMKGKYGIYTKVSRYVNWIKEKTKLT | 771% |  | 3.6e+08 M⁻¹ s⁻¹ |  | 7.9 s⁻¹ | 0.0242 µM |  |
| FIXa-R318Y/R338E/T343R (protein) chain 1: YNSGKLEEFVQGNLERECMEEKCSFEEAREVFENTERTTEFWKQYVDGDQCESNPCLNGGSCKDDINSYECWCPFGFEGKNCELDVTCNIKNGRCEQFCKNSADNKVVCSCTEGYRLAENQKSCEPAVPFPCGRVSVSQTSKLTR chain 2: VVGGEDAKPGQFPWQVVLNGKVDAFCGGSIVNEKWIVTAAHCVETGVKITVVAGEHNIEETEHTEQKRNVIRIIPHHNYNAAINKYNHDIALLELDEPLVLNSYVTPICIADKEYTNIFLKFGSGYVSGWGRVFHKGYSALVLQYLRVPLVDRATCLESTKFRIYNNMFCAGFHEGGRDSCQGDSGGPHVTEVEGTSFLTGIISWGEECAMKGKYGIYTKVSRYVNWIKEKTKLT | 324% |  | 1.5e+08 M⁻¹ s⁻¹ |  | 4.5 s⁻¹ | 0.03 µM | catalyzes the proteolytic cleavage and activation of purified factor X to the same extent in the presence of (1) poly-L-lysine phospholipid/calcium, and (3) factor VIIIa/phospholipid/calcium |
| FIXa-Y155F/R318Y/T343R/R403E (protein) chain 1: YNSGKLEEFVQGNLERECMEEKCSFEEAREVFENTERTTEFWKQYVDGDQCESNPCLNGGSCKDDINSYECWCPFGFEGKNCELDVTCNIKNGRCEQFCKNSADNKVVCSCTEGYRLAENQKSCEPAVPFPCGRVSVSQTSKLTR chain 2: VVGGEDAKPGQFPWQVVLNGKVDAFCGGSIVNEKWIVTAAHCVETGVKITVVAGEHNIEETEHTEQKRNVIRIIPHHNYNAAINKYNHDIALLELDEPLVLNSYVTPICIADKEYTNIFLKFGSGYVSGWGRVFHKGYSALVLQYLRVPLVDRATCLRSTKFRIYNNMFCAGFHEGGRDSCQGDSGGPHVTEVEGTSFLTGIISWGEECAMKGKYGIYTKVSEYVNWIKEKTKLT | 154% |  | 7.1e+07 M⁻¹ s⁻¹ |  | 5 s⁻¹ | 0.0727 µM |  |
| FIXa-Y155F/T343R/R403E/E410N (protein) chain 1: YNSGKLEEFVQGNLERECMEEKCSFEEAREVFENTERTTEFWKQYVDGDQCESNPCLNGGSCKDDINSYECWCPFGFEGKNCELDVTCNIKNGRCEQFCKNSADNKVVCSCTEGYRLAENQKSCEPAVPFPCGRVSVSQTSKLTR chain 2: VVGGEDAKPGQFPWQVVLNGKVDAFCGGSIVNEKWIVTAAHCVETGVKITVVAGEHNIEETEHTEQKRNVIRIIPHHNYNAAINKYNHDIALLELDEPLVLNSYVTPICIADKEYTNIFLKFGSGYVSGWGRVFHKGRSALVLQYLRVPLVDRATCLRSTKFRIYNNMFCAGFHEGGRDSCQGDSGGPHVTEVEGTSFLTGIISWGEECAMKGKYGIYTKVSEYVNWIKNKTKLT | 321% |  | 1.5e+08 M⁻¹ s⁻¹ |  | 6.6 s⁻¹ | 0.0446 µM |  |
| FIXa-Y155F/K247N/N249S/R318Y/R338E/T343R (protein) chain 1: YNSGKLEEFVQGNLERECMEEKCSFEEAREVFENTERTTEFWKQYVDGDQCESNPCLNGGSCKDDINSYECWCPFGFEGKNCELDVTCNIKNGRCEQFCKNSADNKVVCSCTEGYRLAENQKSCEPAVPFPCGRVSVSQTSKLTR chain 2: VVGGEDAKPGQFPWQVVLNGKVDAFCGGSIVNEKWIVTAAHCVETGVKITVVAGEHNIEETEHTEQNRSVIRIIPHHNYNAAINKYNHDIALLELDEPLVLNSYVTPICIADKEYTNIFLKFGSGYVSGWGRVFHKGYSALVLQYLRVPLVDRATCLESTKFRIYNNMFCAGFHEGGRDSCQGDSGGPHVTEVEGTSFLTGIISWGEECAMKGKYGIYTKVSRYVNWIKEKTKLT | 772% |  | 3.6e+08 M⁻¹ s⁻¹ |  | 8.5 s⁻¹ | 0.0276 µM |  |
| FIXa-K247N/N249S/R318Y/R338E/T343R (protein) chain 1: YNSGKLEEFVQGNLERECMEEKCSFEEAREVFENTERTTEFWKQYVDGDQCESNPCLNGGSCKDDINSYECWCPFGFEGKNCELDVTCNIKNGRCEQFCKNSADNKVVCSCTEGYRLAENQKSCEPAVPFPCGRVSVSQTSKLTR chain 2: VVGGEDAKPGQFPWQVVLNGKVDAFCGGSIVNEKWIVTAAHCVETGVKITVVAGEHNIEETEHTEQNRSVIRIIPHHNYNAAINKYNHDIALLELDEPLVLNSYVTPICIADKEYTNIFLKFGSGYVSGWGRVFHKGYSALVLQYLRVPLVDRATCLESTKFRIYNNMFCAGFHEGGRDSCQGDSGGPHVTEVEGTSFLTGIISWGEECAMKGKYGIYTKVSRYVNWIKEKTKLT | 840% |  | 3.9e+08 M⁻¹ s⁻¹ |  | 8 s⁻¹ | 0.0244 µM |  |
| FIXa-Y155F/K247N/N249S/T343R/E410N (protein) chain 1: YNSGKLEEFVQGNLERECMEEKCSFEEAREVFENTERTTEFWKQYVDGDQCESNPCLNGGSCKDDINSYECWCPFGFEGKNCELDVTCNIKNGRCEQFCKNSADNKVVCSCTEGYRLAENQKSCEPAVPFPCGRVSVSQTSKLTR chain 2: VVGGEDAKPGQFPWQVVLNGKVDAFCGGSIVNEKWIVTAAHCVETGVKITVVAGEHNIEETEHTEQNRSVIRIIPHHNYNAAINKYNHDIALLELDEPLVLNSYVTPICIADKEYTNIFLKFGSGYVSGWGRVFHKGRSALVLQYLRVPLVDRATCLRSTKFRIYNNMFCAGFHEGGRDSCQGDSGGPHVTEVEGTSFLTGIISWGEECAMKGKYGIYTKVSRYVNWIKNKTKLT | 599% |  | 2.8e+08 M⁻¹ s⁻¹ |  | 7.9 s⁻¹ | 0.0344 µM |  |
| FIXa-Y155F/K247N/N249S/R403E/E410N (protein) chain 1: YNSGKLEEFVQGNLERECMEEKCSFEEAREVFENTERTTEFWKQYVDGDQCESNPCLNGGSCKDDINSYECWCPFGFEGKNCELDVTCNIKNGRCEQFCKNSADNKVVCSCTEGYRLAENQKSCEPAVPFPCGRVSVSQTSKLTR chain 2: VVGGEDAKPGQFPWQVVLNGKVDAFCGGSIVNEKWIVTAAHCVETGVKITVVAGEHNIEETEHTEQNRSVIRIIPHHNYNAAINKYNHDIALLELDEPLVLNSYVTPICIADKEYTNIFLKFGSGYVSGWGRVFHKGRSALVLQYLRVPLVDRATCLRSTKFTIYNNMFCAGFHEGGRDSCQGDSGGPHVTEVEGTSFLTGIISWGEECAMKGKYGIYTKVSEYVNWIKNKTKLT | 53% |  | 2.4e+07 M⁻¹ s⁻¹ |  | 2.7 s⁻¹ | 0.131 µM |  |
| FIXa-Y155F/R338E/T343R/E410N (protein) chain 1: YNSGKLEEFVQGNLERECMEEKCSFEEAREVFENTERTTEFWKQYVDGDQCESNPCLNGGSCKDDINSYECWCPFGFEGKNCELDVTCNIKNGRCEQFCKNSADNKVVCSCTEGYRLAENQKSCEPAVPFPCGRVSVSQTSKLTR chain 2: VVGGEDAKPGQFPWQVVLNGKVDAFCGGSIVNEKWIVTAAHCVETGVKITVVAGEHNIEETEHTEQKRNVIRIIPHHNYNAAINKYNHDIALLELDEPLVLNSYVTPICIADKEYTNIFLKFGSGYVSGWGRVFHKGRSALVLQYLRVPLVDRATCLESTKFRIYNNMFCAGFHEGGRDSCQGDSGGPHVTEVEGTSFLTGIISWGEECAMKGKYGIYTKVSRYVNWIKNKTKLT | 761% |  | 3.5e+08 M⁻¹ s⁻¹ |  | 6 s⁻¹ | 0.0224 µM |  |
